{"source": "patent US20120082667A1", "about": "(IMMUNAS PHARMA, published 2012)", "binders": {"B1": {"name": "AL-217 antibody (antibody, IgG1, V domains shown)", "VH": "QVTLKESGPGILQPSQTLSLTCSFSGFSLSTSGMGVSWIRQPSGKGLEWLAHIYWDDDKRYNPSLKSRLTISKDTSSNQVFLKITSVDTADTATYYCARRGPSYYRYRDYFDYWGQGTTLTVSS", "VL": "DVLMTQTPLSLPVSLGDQASISCRSSQSIVHSNGNTYLEWYLQKPGQSPKLLIYKVSNRFSGVPDRFSGSGSGTDFTLKISRVEAEDLGVYYCFQGSHVPLTFGAGTKLELK"}, "B2": {"name": "AL-224 antibody (antibody, IgG2a, V domains shown)", "VH": "DVQLVESGGGLVQPGGSRKLSCAASGFTFSSFGMHWVRQAPEKGLEWVAYISSGSSTIYYADTVKGRFTISRDNPKNTLFLQMTSLRSEDTAMYYCARYGNYAMDYWGQGTSVTVSS", "VL": "DVLMTQTPLSLPVSLGDQASISCRSSQSIVHSNGNTYLEWYLQKPGQSPKLLIYKVSNRFSGVPDRFSGSGSGTDFTLKIGRVEAEDLGVYYCFQGSHVPPTFGGGTELEIK"}, "B3": {"name": "AL-225 antibody (antibody, IgG2a, V domains shown)", "VH": "QVTLKESGPGILKPSQTLSLTCSFSGFSLSTSGMGVGWIRQPSGKGLEWLAHIWWDDDKYYNPSLKSQLTISKDTSRNQVFLKITSVDTADTATYYCARRGLIRQDYFDYWGQGTTLTVSS", "VL": "DVLMTQTPLSLPVSLGDQASISCRSSQSIVHSNGNTYLEWYLQKPGQSPKLLIYKVSNRFSGVPDRFSGSGSGTDFTLKISRVEAEDLGVYYCFQGSHVPLTFGAGTKLELK"}, "B4": {"name": "AL-202 antibody (antibody, IgG2a, V domains shown)", "VH": "EVQLVESGGDLVKPGGSLKLSCAASGFTFSSYGMSWVRQTPDKRLEWVATISSGGSYTYYPDSVKGRFTISRDNAKNTLYLQMSSLKSEDTAMYYCARPLYYRHGVFAYWGQGTLVTVSA", "VL": "DVQITQSPSYLAASPGETITINCRASKSISKYLAWYQEKPGKTNKLLIYSGSTLQSGIPSRFSGSGSGTDFTLTISSLEPEDFAMYYCQQHNEYPWTFGGGTKLEIK"}, "B5": {"name": "AL-211 antibody (antibody, IgG2b, V domains shown)", "VH": "QVTLKESGPGILKPSQTLSLTCSFSGFSLSTSGMGVGWIRQPSGKGLEWLAHIWWDDDKYYNPSLKSQLTISKDTSRNQVFLKITSVDTADTATYYCARRSLSRDYFDYWGQGTTLTVSS", "VL": "DVVMTQTPLSLPVSLGDQASISCRSSQSLVHSNGNTYLHWYLQKPGQSPKLLIYKVSNRFSGVPDRFSGSGSGTDFTLKISRVEAEDLGVYFCSQSTHVPLTFGAGTKLELK"}, "B6": {"name": "AL-212 antibody (antibody, IgG2b, V domains shown)", "VH": "QVTLKESGPGILKPSQTLSLTCSFSGFSLSTSGMGVGWIRQPSGKGLEWLAHIWWDDDKYYNPSLKSQLTISKDTSRNQVFLKITSVDTADTATYYCAPSTMITTFAYWGQGTLVTVSA", "VL": "DVVMTQTPLSLPVSLGDQASISCRSSQSLVHSNGNTYLHWYLQKPGQSPKLLIYKVSNRFSGVPDRFSGSGSGTDFTLKISRVEAEDLGVYFCSQSTHVPLTFGAGTKLELK"}, "B7": {"name": "AL-213 antibody (antibody, IgG2b, V domains shown)", "VH": "QVQLKQSGPGLVQPSQSLSITCTVSGFSLTSYGVHWVRQSPGKGLEWLGVIWRGGSTDYNAAFMSRLSITKDNSKSQVFFKMNSLQADDTAIYYCANNRYERGGYYAMDYWGQGTSVTVSS", "VL": "DVLMTQTPLSLPVSLGDQASISCRSSQSIVHSNGNTYLEWYLHKPGQSPKLLIYKVSNRFSGVPDRFSGSGSGTDFTLKISRVEAEDLGVYYCFQGSHVPLTFGAGTKLELK"}, "B8": {"name": "AL-214 antibody (antibody, IgG2b, V domains shown)", "VH": "QVQLKQSGPGLVQPSQSLSITCTVSGFSLTSYGVHWVRQSPGKGLEWLGVIWRGGSTDYNAAFMSRLSITKDNSKSQVFFKMNSLQADDTAIYYCANNRYERGGYYAMDYWGQGTSVTVSS", "VL": "DVLMTQTPLSLPVSLGDQASISCRSSQSIVHSNGNTYLEWYLQKPGQSPKLLIYKVSNRFSGVPDRFSGSGSGTDFTLKISRVEAEDLGVYYCFQGSHVPLTFGAGTKLELK"}, "B9": {"name": "AL-216 antibody (antibody, IgG2b, V domains shown)", "VH": "QVQLQQPGAELVKPGASVKLSCKASGYTFTSYWMHWVKQRPGQGLEWIGEINPSNGRTNYNEKFKSKATLTVDKSSSTAYMQLSSLTSEDSAVYYCAREHYYGYGAYWGQGTLVTVSA", "VL": "DVLMTQTPLSLPVSLGDQASISCRSSQSIVHSNGNTYLEWYLQKPGQSPKLLIYKVSNRFSGVPDRFSGSGSGTDFTLKISRVEAEDLGVYYCFQGSHVPLTFGAGTKLELK"}, "B10": {"name": "AL-220 antibody (antibody, IgG2b, V domains shown)", "VH": "QVQLQQPGAELVKPGASVKLSCKASGYTFTSYWMHWVKQRPGQGLEWIGEINPSNGRTNYNEKFKSKATLTVDKSSSTAYMQLSSLTSEDSAVYYCAREHYYGYGAYWGQGTLVTVSA", "VL": "DVLMTQTPLSLPVSLGDQASISCRSSQSIVHSNGNTYLEWYLQKPGQSPKLLIYKVSNRFSGVPDRFSGSGSGTDFTLKISRVEAEDLGVYYCFQGSHVPYTFGGGTKLEIK"}, "B11": {"name": "AL-206 antibody (antibody, IgG2b, V domains shown)", "VH": "DVQLQESGPGLVKPSQSLSLACTVTGYSITSDYAWNWIRQFPGNKLEWLGYISYSGTTRYNPSLKSRISITRDTSKNQFFLQLNSVTTEDTATYYCAIYGSSYYWYFDVWGAGTTVTVSS", "VL": "QIVLTQSPAIMSASLGERVTMTCTASSSVSSSYLHWYQQKPGSSPKLWIYSTSNLASGVPARFSGSGSGTSYSLTISSMEAEDAATYYCHQYHRSPPTFGAGTKLELK"}, "B12": {"name": "AL-226 antibody (antibody, IgG2b, V domains shown)", "VH": "not shown", "VL": "DVVMTQTPLSLPVSLGDQASISCRSSQSLVHSNGNTYLHWYLQKPGQSPKLLIYKVSNRFSGVPDRFSGSGSGTDFTLKISRVEAEDLGVYFCSQSTHVPLTFGAGTKLELK"}, "B13": {"name": "AL-227 antibody (antibody, IgG2a, V domains shown)", "VH": "not shown", "VL": "DVVMTQTPLSLPVSLGDQASISCRSSQSLVHSNGNTYLHWYLQKPGQSPKLLIYKVSNRFSGVPDRFSGSGSGTDFTLKISRVEAEDLGVYFCSQSTHVPLTFGAGTKLELK"}, "B14": {"name": "AL-228 antibody (antibody, IgG2a, V domains shown)", "VH": "QVTLKESGPGILKPSQTLSLTCSFSGFSLSTSGMGVGWIRQPSGKGLEWLAHIWWDDDKYYNPSLKSRLTISKDTSRNQVFLKITSVDTADTATYYCTRRALLRLQGDYFDYWGQGTTLTVSS", "VL": "DVLMTQTPLSLPVSLGDQASISCRSSQSIVHSNGNTYLEWYLQKPGQSPKLLIYKVSNRFSGVPDRFSGSGSGTDFTLKISRVEAEDLGVYYCFQGSHVPLTFGAGTKLELK"}, "B15": {"name": "AL-207 antibody (antibody, IgG2b, V domains shown)", "VH": "QVTLKESGPGILKPSQTLSLTCSFSGFSLSTSGMGVGWIRQPSGKGLEWLAHIWWDDDEYYNPSLKSQLTISKDTTRNQVFLKITSVDTADTATYYCARRAIHYYGYDAMDYWGQGTSVTVSS", "VL": "QIVLTQSPAIMSASLGERVTMTCTASSSVSSSYLHWYQQKPGSSPKLWIYSTSNLASGVPARFSGSGSGTSYSLTISSMEAEDAATYYCHQYHRSPPTFGAGTKLELK"}, "B16": {"name": "AL-208 antibody (antibody, IgG2b, V domains shown)", "VH": "QVQLQQPGAELVKPGASVKLSCKASGYTFTSYWMHWVKQRPGQGLEWIGEINPSNGRTNYNEKFKSKATLTVDKSSSTAYMQLSSLTSEDSAVYYCARQGYRHGVFAYWGQGTLVTVSA", "VL": "QIVLTQSPAIMSASLGERVTMTCTASSSVSSSYLHWYQQKPGSSPKLWIYSTSNLASGVPARFSGSGSGTSYSLTISSMEAEDAATYYCHQYHRSPPTFGAGTKLELK"}}, "data": [{"target": "T1, A beta oligomer prepared from synthetic A beta1-40 (HCl form), 0.1 mg/ml in PBS, incubated at 37 degrees C … (UniProt P05067 672-711)", "T1 construct": "domain: A beta1-40; non-fibrous assembly of A beta1-40; also called A beta1-40 oligomer; A beta40 oligomer", "test": "SPR, Biacore 3000, A beta1-40 oligomer on CM5 chip, antibody as analyte at five concentrations", "procedure": "The analysis was carried out by Surface Plasmon Resonance (SPR) using Biacore 3000 (GE Healthcare Sciences).", "units": {"Kd": "µM", "koff": "s⁻¹", "kon": "M⁻¹ s⁻¹"}, "values": [{"binder": "B1", "Kd": 0.00644, "koff": 0.00123, "kon": 191000}, {"binder": "B2", "Kd": 0.544, "koff": 0.155, "kon": 285000}, {"binder": "B3", "Kd": 0.126, "koff": 0.0192, "kon": 152000}]}, {"target": "T2, synthesized A beta1-42 (UniProt P05067 672-713)", "T2 construct": "domain: A beta1-42; spotted in the dot blot as the second of the two types of oligomers; also called A beta42 oligomer", "test": "dot blot: peptide spotted on nitrocellulose (0.1 micro g/dot), hybridoma culture supernatant, HRP anti-mouse IgG, ECL", "procedure": "Dot blot analysis was carried out for hybridomas that gave positive result for primary screening. […] The membrane was blocked with Tris Buffer containing 5% low-fat milk and 0.05% Tween-20, and reacted with hybridoma culture supernatants and detected with chemiluminescence kit (ECL) after reacting with HRP-conjugated anti-mouse IgG antibody.", "values": [{"binder": "B4", "binding result": "binds"}, {"binder": "B5", "binding result": "binds"}, {"binder": "B6", "binding result": "binds"}, {"binder": "B7", "binding result": "binds"}, {"binder": "B8", "binding result": "binds"}, {"binder": "B9", "binding result": "binds"}, {"binder": "B10", "binding result": "binds"}, {"binder": "B11", "binding result": "binds"}, {"binder": "B12", "binding result": "binds"}, {"binder": "B13", "binding result": "binds"}, {"binder": "B14", "binding result": "binds"}, {"binder": "B15", "binding result": "binds"}, {"binder": "B16", "binding result": "binds"}]}]}
